Reference: publication PMC6442606 (Proceedings of the National Academy of Sciences of the …, 2019)

B1: pregnancy zone protein (PZP) (natural protein, human, UniProt P20742 26-1482, looked up)
chain: TEPQYMVLVPSLLHTEAPKKGCVLLSHLNETVTVSASLESGRENRSLFTDLVAEKDLFHCVSFTLPRISASSEVAFLSIQIKGPTQDFRKRNTVLVLNTQSLVFVQTDKPMYKPGQTVRFRVVSVDENFRPRNELIPLIYLENPRRNRIAQWQSLKLEAGINQLSFPLSSEPIQGSYRVVVQTESGGRIQHPFTVEEFVLPKFEVKVQVPKIISIMDEKVNITVCGEYTYGKPVPGLATVSLCRKLSRVLNCDKQEVCEEFSQQLNSNGCITQQVHTKMLQITNTGFEMKLRVEARIREEGTDLEVTANRISEITNIVSKLKFVKVDSHFRQGIPFFAQVLLVDGKGVPIPNKLFFISVNDANYYSNATTNEQGLAQFSINTTSISVNKLFVRVFTVHPNLCFHYSWVAEDHQGAQHTANRVFSLSGSYIHLEPVAGTLPCGHTETITAHYTLNRQAMGELSELSFHYLIMAKGVIVRSGTHTLPVESGDMKGSFALSFPVESDVAPIARMFIFAILPDGEVVGDSEKFEIENCLANKVDLSFSPAQSPPASHAHLQVAAAPQSLCALRAVDQSVLLMKPEAELSVSSVYNLLTVKDLTNFPDNVDQQEEEQGHCPRPFFIHNGAIYVPLSSNEADIYSFLKGMGLKVFTNSKIRKPKSCSVIPSVSAGAVGQGYYGAGLGVVERPYVPQLGTYNVIPLNNEQSSGPVPETVRSYFPETWIWELVAVNSSGVAEVGVTVPDTITEWKAGAFCLSEDAGLGISSTASLRAFQPFFVELTMPYSVIRGEVFTLKATVLNYLPKCIRVSVQLKASPAFLASQNTKGEESYCICGNERQTLSWTVTPKTLGNVNFSVSAEAMQSLELCGNEVVEVPEIKRKDTVIKTLLVEAEGIEQEKTFSSMTCASGANVSEQLSLKLPSNVVKESARASFSVLGDILGSAMQNIQNLLQMPYGCGEQNMVLFAPNIYVLNYLNETQQLTQEIKAKAVGYLITGYQRQLNYKHQDGSYSTFGERYGRNQGNTWLTAFVLKTFAQARSYIFIDEAHITQSLTWLSQMQKDNGCFRSSGSLLNNAIKGGVEDEATLSAYVTIALLEIPLPVTNPIVRNALFCLESAWNVAKEGTHGSHVYTKALLAYAFSLLGKQNQNREILNSLDKEAVKEDNLVHWERPQRPKAPVGHLYQTQAPSAEVEMTSYVLLAYLTAQPAPTSGDLTSATNIVKWIMKQQNAQGGFSSTQDTVVALHALSRYGAATFTRTEKTAQVTVQDSQTFSTNFQVDNNNLLLLQQISLPELPGEYVITVTGERCVYLQTSMKYNILPEKEDSPFALKVQTVPQTCDGHKAHTSFQISLTISYTGNRPASNMVIVDVKMVSGFIPLKPTVKMLERSSSVSRTEVSNNHVLIYVEQVTNQTLSFSFMVLQDIPVGDLKPAIVKVYDYYETDESVVAEYIAPCSTDTEHGNV
B2: transformed α2M (α2M*) (natural protein, human, UniProt P01023 24-1474, looked up)
chain: SVSGKPQYMVLVPSLLHTETTEKGCVLLSYLNETVTVSASLESVRGNRSLFTDLEAENDVLHCVAFAVPKSSSNEEVMFLTVQVKGPTQEFKKRTTVMVKNEDSLVFVQTDKSIYKPGQTVKFRVVSMDENFHPLNELIPLVYIQDPKGNRIAQWQSFQLEGGLKQFSFPLSSEPFQGSYKVVVQKKSGGRTEHPFTVEEFVLPKFEVQVTVPKIITILEEEMNVSVCGLYTYGKPVPGHVTVSICRKYSDASDCHGEDSQAFCEKFSGQLNSHGCFYQQVKTKVFQLKRKEYEMKLHTEAQIQEEGTVVELTGRQSSEITRTITKLSFVKVDSHFRQGIPFFGQVRLVDGKGVPIPNKVIFIRGNEANYYSNATTDEHGLVQFSINTTNVMGTSLTVRVNYKDRSPCYGYQWVSEEHEEAHHTAYLVFSPSKSFVHLEPMSHELPCGHTQTVQAHYILNGGTLLGLKKLSFYYLIMAKGGIVRTGTHGLLVKQEDMKGHFSISIPVKSDIAPVARLLIYAVLPTGDVIGDSAKYDVENCLANKVDLSFSPSQSLPASHAHLRVTAAPQSVCALRAVDQSVLLMKPDAELSASSVYNLLPEKDLTGFPGPLNDQDNEDCINRHNVYINGITYTPVSSTNEKDMYSFLEDMGLKAFTNSKIRKPKMCPQLQQYEMHGPEGLRVGFYESDVMGRGHARLVHVEEPHTETVRKYFPETWIWDLVVVNSAGVAEVGVTVPDTITEWKAGAFCLSEDAGLGISSTASLRAFQPFFVELTMPYSVIRGEAFTLKATVLNYLPKCIRVSVQLEASPAFLAVPVEKEQAPHCICANGRQTVSWAVTPKSLGNVNFTVSAEALESQELCGTEVPSVPEHGRKDTVIKPLLVEPEGLEKETTFNSLLCPSGGEVSEELSLKLPPNVVEESARASVSVLGDILGSAMQNTQNLLQMPYGCGEQNMVLFAPNIYVLDYLNETQQLTPEIKSKAIGYLNTGYQRQLNYKHYDGSYSTFGERYGRNQGNTWLTAFVLKTFAQARAYIFIDEAHITQALIWLSQRQKDNGCFRSSGSLLNNAIKGGVEDEVTLSAYITIALLEIPLTVTHPVVRNALFCLESAWKTAQEGDHGSHVYTKALLAYAFALAGNQDKRKEVLKSLNEEAVKKDNSVHWERPQKPKAPVGHFYEPQAPSAEVEMTSYVLLAYLTAQPAPTSEDLTSATNIVKWITKQQNAQGGFSSTQDTVVALHALSKYGAATFTRTGKAAQVTIQSSGTFSSKFQVDNNNRLLLQQVSLPELPGEYSMKVTGEGCVYLQTSLKYNILPEKEEFPFALGVQTLPQTCDEPKAHTSFQISLSVSYTGSRSASNMAIVDVKMVSGFIPLKPTVKMLERSNHVSRTEVSSNHVLIYLDKVSNQTLSLFFTVLQDVPVRDLKPAIVKVYDYYETDEFAIAEYNAPCSKDLGNA
modifications: thioester bond reacted (NH4Cl)
B3: hypochlorite-modified α2M (natural protein, human, UniProt P01023 24-1474, looked up)
chain: B2 chain
modifications: hypochlorite (NaOCl)-modified; residues not stated

Assays:
[1] = biological target: Hilyte Fluor 488-labeled Aβ1-42 (UniProt P05067 672-713, Hilyte Fluor 488 label (position not given)); experiment: native gel or EMSA
Sequence of Hilyte Fluor 488-labeled Aβ1-42 (P05067 672-713): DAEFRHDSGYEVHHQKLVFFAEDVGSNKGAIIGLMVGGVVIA

native gel or EMSA = biological target: the molecule itself; experiment: native gel or EMSA
biotinylated Aβ1-42 = biotinylated Aβ1-42 (UniProt P05067 672-713, biotin (position not given)); experiment: pull-down
Sequence of biotinylated Aβ1-42 (P05067 672-713): as above

Row | Binder | binding result [1] | stoichiometry N (native gel or EMSA) | binding result (biotinylated Aβ1-42)
1 | B1 | binds | 2 | binds
2 | B2 |  | 4 | 
3 | B3 |  | 2 | 
